For 1 substance, LCL and EC50 (read off the curve) results are on record in US20260242493A1.

Test [1] concerns the target recombinant human CD40L (BioLegend Cat. #591706) (human) (UniProt P29965). Kind of test: ELISA on coated rhCD40L; lower limit of IC50. In general terms: ELISA stands for enzyme-linked immunosorbent assay.
The target in test [2] is recombinant human FcγRI (human) (UniProt P12314). As to the kind of experiment: ELISA: test protein coated, recombinant human FcγRI titrated, anti-CD64 detection, A450.
recombinant human FcγRI (human), sequence (P12314 16-288 limits assumed): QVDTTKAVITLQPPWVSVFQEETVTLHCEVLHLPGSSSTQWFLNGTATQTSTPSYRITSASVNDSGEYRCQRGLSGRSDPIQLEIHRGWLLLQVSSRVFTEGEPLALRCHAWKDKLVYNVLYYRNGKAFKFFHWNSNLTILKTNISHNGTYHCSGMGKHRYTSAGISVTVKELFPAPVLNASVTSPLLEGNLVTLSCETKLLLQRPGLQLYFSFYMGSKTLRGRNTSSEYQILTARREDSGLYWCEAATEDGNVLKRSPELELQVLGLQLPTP

recombinant human CD40L (BioLegend Cat. #591706) (human), sequence (P29965 113-261 limits assumed, form in doubt): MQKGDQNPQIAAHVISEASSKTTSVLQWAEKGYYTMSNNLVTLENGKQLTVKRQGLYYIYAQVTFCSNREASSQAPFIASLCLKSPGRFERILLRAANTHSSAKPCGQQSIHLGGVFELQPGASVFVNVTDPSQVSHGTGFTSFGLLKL

As a reminder, the EC50 (read off the curve) is the concentration giving half of the maximal effect. As for “anti-CD40L antibody 5c8 (reference antibody)”, the LCL in test [1] was 0.04. In test [2], the EC50 (read off the curve) was determined as 0.2 µg/mL.
